US20120058906A1
Values belong to the substance of their own block, whether it stands above or below them.

Legend:
[1] = target: rHuman P-Cadherin/Fc Chimera, CF (R&D Systems Cat#861-PC) (human) (UniProt P22223); assay: ECL (MSD Multi-Spot) binding, antigen spotted on plate, Fab at 62.5 nM; blank spot 268
[2] = target: Recombinant Human DLL4 (R&D Systems Cat#1506-D4/CF) (human) (UniProt Q9NR61); assay: as above
[3] = target: Recombinant Human DLL4 (R&D Systems Cat#1506-D4/CF) (human) (UniProt Q9NR61); assay: ECL (MSD Multi-Spot) binding, antigen spotted on plate, Fab at […]; blank spot 250
[4] = target: rHuman P-Cadherin/Fc Chimera, CF (R&D Systems Cat#861-PC) (human) (UniProt P22223); assay: ECL (MSD Multi-Spot) binding, antigen spotted on plate, Fab at 500 nM; blank spot 680
[5] = target: Recombinant Human DLL4 (R&D Systems Cat#1506-D4/CF) (human) (UniProt Q9NR61); assay: as above
[6] = target: rHuman P-Cadherin/Fc Chimera, CF (R&D Systems Cat#861-PC) (human) (UniProt P22223); assay: ECL (MSD Multi-Spot) binding, antigen spotted on plate, Fab at 1000 nM; blank spot 1133
[7] = target: Recombinant Human DLL4 (R&D Systems Cat#1506-D4/CF) (human) (UniProt Q9NR61); assay: as above
[8] = target: Recombinant Human DLL4 (R&D Systems Cat#1506-D4/CF) (human) (UniProt Q9NR61); assay: ECL (MSD Multi-Spot) binding, antigen spotted on plate, Fab at 125 nM; blank spot 403
[9] = target: rHuman P-Cadherin/Fc Chimera, CF (R&D Systems Cat#861-PC) (human) (UniProt P22223); assay: ECL (MSD Multi-Spot) binding, antigen spotted on plate, Fab at 250 nM; blank spot 590
[10] = target: Recombinant Human DLL4 (R&D Systems Cat#1506-D4/CF) (human) (UniProt Q9NR61); assay: as above
[11] = target: rHuman EGF R/Fc Chimera, CF (R&D Systems Cat#344-ER) (human) (UniProt P00533); assay: MSD ECL multi-spot, Fab 0.43 uM, blank 879
[12] = target: rHuman HGF R/c-MET/Fc Chimera, CF (R&D Systems Cat#358-MT/CF) (human) (UniProt P08581); assay: MSD ECL multi-spot, Fab 0.43 uM, blank 879
[13] = target: rHuman CD44/Fc Chimera, CF (R&D Systems Cat#3660-CD) (human) (UniProt P16070); assay: MSD ECL multi-spot, Fab 0.43 uM, blank 879
[14] = target: rHuman P-Cadherin/Fc Chimera, CF (R&D Systems Cat#861-PC) (human) (UniProt P22223); assay: ECL (MSD Multi-Spot) binding, antigen spotted on plate, Fab at 7.8 nM; blank spot 316
[15] = target: Recombinant Human DLL4 (R&D Systems Cat#1506-D4/CF) (human) (UniProt Q9NR61); assay: as above
[16] = target: rHuman P-Cadherin/Fc Chimera, CF (R&D Systems Cat#861-PC) (human) (UniProt P22223); assay: ECL (MSD Multi-Spot) binding, antigen spotted on plate, Fab at […]; blank spot 294
[17] = target: Recombinant Human DLL4 (R&D Systems Cat#1506-D4/CF) (human) (UniProt Q9NR61); assay: as above
[18] = target: rHuman P-Cadherin/Fc Chimera, CF (R&D Systems Cat#861-PC) (human) (UniProt P22223); assay: MSD ECL multi-spot assay, antigen spotted on plate, Fab 0.51 uM; blank spot 1393
[19] = target: rHuman EGF R/Fc Chimera, CF (R&D Systems Cat#344-ER) (human) (UniProt P00533); assay: as above
[20] = target: rHuman Notch-1/Fc Chimera, CF (R&D Systems Cat#3647-TK) (human) (UniProt P46531); assay: as above
[21] = target: rHuman Erythropoietin R/Fc Chimera, CF (R&D Systems Cat#963-ER) (human) (UniProt P19235); assay: as above
[22] = target: rHuman P-Cadherin/Fc Chimera, CF (R&D Systems Cat#861-PC) (human) (UniProt P22223); assay: ECL (MSD Multi-Spot) binding assay, antigen spotted on plate; Fab 154 nM; blank spot 447
[23] = target: rHuman P-Cadherin/Fc Chimera, CF (R&D Systems Cat#861-PC) (human) (UniProt P22223); assay: ECL (MSD Multi-Spot) binding assay, antigen spotted on plate; Fab 6 nM; blank spot 191
[24] = target: rHuman P-Cadherin/Fc Chimera, CF (R&D Systems Cat#861-PC) (human) (UniProt P22223); assay: ECL (MSD Multi-Spot) binding assay, antigen spotted on plate; Fab 51 nM; blank spot 335
[25] = target: rHuman P-Cadherin/Fc Chimera, CF (R&D Systems Cat#861-PC) (human) (UniProt P22223); assay: ECL (MSD Multi-Spot) binding assay, antigen spotted on plate; Fab 17 nM; blank spot 143
[26] = target: rHuman IGF-1 sR (IGF-1 sR), CF (R&D Systems Cat#391-GR) (human) (UniProt P08069); assay: MSD ECL multi-spot assay, antigen spotted on plate, Fab […]; blank spot 2877
[27] = target: rHuman ErbB2/Fc Chimera, CF (R&D Systems Cat#1129-ER) (human) (UniProt P04626); assay: as above
[28] = target: rHuman HGF R/c-MET/Fc Chimera, CF (R&D Systems Cat#358-MT/CF) (human) (UniProt P08581); assay: as above

Chain of rHuman Erythropoietin R/Fc Chimera, CF (R&D Systems Cat#963-ER) (human) (P19235 25-250, change not shown): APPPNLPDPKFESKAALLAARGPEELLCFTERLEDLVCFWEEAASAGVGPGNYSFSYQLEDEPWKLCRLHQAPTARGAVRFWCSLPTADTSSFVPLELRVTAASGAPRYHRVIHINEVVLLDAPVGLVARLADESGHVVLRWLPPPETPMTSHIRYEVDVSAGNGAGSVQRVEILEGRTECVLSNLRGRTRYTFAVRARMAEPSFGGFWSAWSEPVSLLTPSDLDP

ECL signal [1]: 1170
ECL signal [2]: 715
ECL signal [3]: 528
ECL signal [4]: 3450
ECL signal [5]: 2320
ECL signal [6]: 4500
ECL signal [7]: 2780
ECL signal [8]: 912
ECL signal [9]: 2780
ECL signal [10]: 1560
ECL signal [11]: 1230
ECL signal [12]: 1140
ECL signal [13]: 1500
ECL signal [14]: 695
ECL signal [15]: 407
ECL signal [16]: 971
ECL signal [17]: 525
Substance: Fab VH1-46_IGHD6-13*01_IGHJ4*01 & B3_IGKJ1*01

ECL signal [18]: 3180
ECL signal [19]: 1810
ECL signal [20]: 2880
ECL signal [21]: 2560
Substance: Fab VH4-34_IGHD7-27*01_IGHJ4*01 & L5_IGKJ1*01

ECL signal [22]: 1730
ECL signal [23]: 358
ECL signal [24]: 854
ECL signal [25]: 542
Substance: Fab VH5-51_IGHD5-18*01>3_IGHJ4*01 & V3-4_IGLJ1*01

ECL signal [26]: 5470
ECL signal [27]: 6940
ECL signal [28]: 6310
Substance: Fab VH1-46_IGHD6-13*01_IGHJ4*01 & A27_IGKJ1*01
